Source: PMC10783494, “A conserved protein inhibitor brings under check the activity of RNase E in cyanobacteria”

Experiments:
[1] = target: RneN396, the catalytic core of Anabaena RNase E (1-396 aa) (Anabaena PCC 7120); assay: SPR; Biacore, 25°C, PBS pH 7.4; RneN396 (2 uM) immobilized on a streptavidin-coated sensor chip; RebA injected at 0-1000 nM; steady-state affinity
[2] = target: RneN396, the catalytic core of Anabaena RNase E (1-396 aa) (Anabaena PCC 7120); assay: native gel or EMSA; RneN396, RebA and their mixture incubated for 30 min and separated on a native gel; the band of the complex excised and analysed by SDS-PAGE beside defined molar ratios, bands quantified with ImageJ
[3] = target: RneN412, the catalytic region of Anabaena RNase E (1-412 aa) (Anabaena PCC 7120)
[4] = target: T1, RneN396, the catalytic core of Anabaena RNase E (1-396 aa) (Anabaena PCC 7120); assay: BLI
T1 chain: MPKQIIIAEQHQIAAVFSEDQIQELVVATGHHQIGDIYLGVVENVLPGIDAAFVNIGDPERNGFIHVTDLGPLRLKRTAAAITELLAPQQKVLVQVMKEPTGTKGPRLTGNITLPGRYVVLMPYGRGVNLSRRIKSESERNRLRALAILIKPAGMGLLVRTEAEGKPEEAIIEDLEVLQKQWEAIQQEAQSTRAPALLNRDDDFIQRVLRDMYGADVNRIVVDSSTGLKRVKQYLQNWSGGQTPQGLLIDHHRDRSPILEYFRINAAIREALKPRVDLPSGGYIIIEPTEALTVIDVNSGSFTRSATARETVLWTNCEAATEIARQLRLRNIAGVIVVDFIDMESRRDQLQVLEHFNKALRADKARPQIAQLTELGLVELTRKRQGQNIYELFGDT

RebA = RebA (Anabaena PCC 7120, UniProt A0ABR7ZDZ7 1-423); assay: EMSA; RebA up to 50-fold molar excess; 2 mM EDTA; 20 mM Tris-HCl pH 8.0, 200 mM NaCl, 0.1 mM DTT, 2 mM EDTA, 5% glycerol, 1 mg/ml BSA; 30 min at 30 C; 5% native PAGE at 4 C; settings: protein: recombinant; tags: N-terminal Strep tag; label: 3' FAM

Molecule: full-length RebA bearing an N-terminal Strep tag (recombinant) (natural protein)
- Kd [1]: 10.3 nM
- stoichiometry N [2]: 1 RneN396:RebA
- cleavage of 5′ p-LU13-FAM by RneN412 (0.4 nM) with increasing RebA: ratio of RebA to RneN412 for half-inhibition (RebA:RneN412 ratio) [3]: 1
- cleavage of 5′ p-LU13-FAM by RneN412 with increasing RebA (up to a RebA:RneN412 ratio of 4:1): drop of activity [3]: 90%

B1: full-length RebA bearing an N-terminal Strep tag (recombinant) (natural protein)
chain: MRKLTNSDKQEILKLYRETAETTSTLAERYDVSNSTISRLLKSTLPEDEYEFLVSLKRAARTPEGRAQVSYDQIPFVGQPEEAPVISTQKVELPEPITKPEPSRVEDKPTPVIRKGRQAKPAPLPEENPQPLLAEEEKPTPVIRRGRQAKPAPLPEEEKPTPVIRKARQAKPEFFAEEEEKPTPVIRKARQAKPEFFAEEEEKPTPVIRRVRRRSASEEEDREPIARQLEIPVGKPQEIISVSSPSLEDETAEVTPMGYAPPQVIAEMLGEDLLDESEDLDDLEEDLDEDLDEEDYEDEEDDLEEARPLVTRRRFGDAAVQVLPLSVASLPKTCYLVIDRSSELITRPLKDFGDLGQIPSLETQQRTLPIFDNHRVAKRFSTKRDRVIKVPDSRMLHKARTHLQAKGITRLLIDGQVYSLSLV
- koff [4]: 0.000112 s⁻¹

B2: 5' p-LU13-FAM (ssRNA)
RNA: GAGACAGUAUUUG
modifications: 5' monophosphate
- binding result (RebA): no binding
